Measured values from publication PMC7556403.

Columns and labels:
[1] = molecular target: MBP-APO1 mXT (aggregated form) M46A;R48S;I80T;W121A;L173A;W199A;F205A;del1-14 (human) (UniProt P41238); assay: EMSA; conditions: no A1CF; aggregated form; weaker than WT; 50 nM nucleic acid, 20 mM HEPES, 50 mM NaCl, 5 mM DTT, 10% glycerol (0.4 U RNase inhibitor for RNA), pH not stated for EMSA (HEPES pH 7.5 in protein buffers) …
[2] = molecular target: MBP-APO1 mXT (dimeric form) M46A;R48S;I80T;W121A;L173A;W199A;F205A;del1-14 (human) (UniProt P41238); assay: EMSA; conditions: no A1CF; dimeric form; 50 nM nucleic acid, 20 mM HEPES, 50 mM NaCl, 5 mM DTT, 10% glycerol (0.4 U RNase inhibitor for RNA), pH not stated for EMSA (HEPES pH 7.5 in protein buffers) …

Work on “GGAUAUAUGAUACAAUUUGAUCAGUAUAUUAAAGAUAGUUAUGAUUUACAUGAUU [APOB RNA 55 nt]” yielded a Kd [1] of 460 nM and a Kd [2] of 140 nM.
